Data published in the supplement of paper PMC12042874.
± gives the uncertainty stated by the source.

Experiment: amyloid nucleation score (Sup35N fusion, yeast selection) (log enrichment); library NNK3; higher = more nucleation; inactive = no reads after selection
In short: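 On medium lacking adenine and uracil, psi-negative yeast expressing peptides of 20 random codons fused to Sup35N were grown 7 days at 30°C after a 24-hour induction with 100 μM copper sulfate. Illumina sequencing of input and output plasmid inserts gave the reads, and sequences under 100 input reads were excluded. The nucleation score is the DiMSum log enrichment of output over input reads, centred on the mode score of non-aggregating sequences.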

Substance	amyloid nucleation score
LTVCV	inactive
LVCGPI	inactive
LVCMEISSNFLATVCVEWIG	inactive
LVCSLLQASNWCVISSS	0.753 ± 0.11
LVDLRTVSYTLSQKMKFGGS	inactive
LVFKLAEMCADPIKQRCCGL	inactive
LVFKYSKAVSTYWYEGDQVT	inactive
LVFSRACTLVDTIE	inactive
LVFTWYFMCNVMGIFDRGTR	2.06 ± 0.094
LVIACTGYVSLCR	inactive
LVICGYDIRN	inactive
LVINL	inactive
LVLLHVLGERSSAPRRTVMR	inactive
LVLMSEGFM	inactive
LVLPVSFRVCFREVIIHMKY	inactive
LVLRGKRSDV	inactive
LVMINCCHVFRKARSTAERQ	2.44 ± 0.071
LVNCISIVLFPECNKSLLHR	2.35 ± 0.077
LVNELAQVVVCLGSRSTVLG	inactive
LVNGVHLREWVTPRVECGSF	inactive
LVSHSTMLPVSFFAHYRGEV	inactive
LVSTEKWEYLGQCARRELRF	-0.884 ± 2.4
LVTIYW	inactive

Substance	amyloid nucleation score
LVTPSSTALFWSNFLWSELP	inactive
LVVCYGNWMRLVGIFINGNS	inactive
LVVTYWEMRLVPADAK	inactive
LVVVECSSLMRADLCSTQVM	inactive
LVYAKNMLFDNKDWCV	inactive
LVYPQIYVQV	inactive
LWFMDFMQSSNSEYQPIVGL	inactive
LWHGIICFCFLAYSWGKSAV	inactive
LWQGNMM	-1.07 ± 1.9
LWRKMVVPYFYP	inactive
LWRTGRALWAMNWKAYIQFK	inactive
LWSIRYFKIS	inactive
LWSLYFDFVQGFGMYLSQSL	inactive
LWSSDVEFLYGCASSCDFMG	inactive
LWSYITK	inactive
LYCPGYSMKSSVL	inactive
LYFNVSTTIAIRIRSYSYRV	-0.299 ± 0.62
LYFSNRTIKEYIVN	inactive
LYFYNIESLAMIFNMNENLV	2.31 ± 0.058
LYIGQGSMIFFYSVVGFSAC	2.36 ± 0.087
LYIIKSR	-0.51 ± 1.7
LYINYLCWMNKYTACLPLHL	inactive
LYLQVALRTWLLSRWDLDDI	inactive

Substance	amyloid nucleation score
LYNYAVSISTLIH	0.971 ± 0.2
LYRLPRGYIRGGLLMLSS	inactive
LYSCMFIMLFQNYFLPIGVA	inactive
LYSLFVMFLSVKVWFIVFM	inactive
LYVDCGLRIWRNMSAIVGCV	inactive
LYVFLLNECSWRAPGASI	inactive
LYVTILNVLLLHMTHSLFSG	inactive
MACGGIKTIDTWNGDKFNVQ	inactive
MAFRETRWNFLLNKV	inactive
MCDGFVVVNLILFWKVEMI	inactive
MCEGLEFLNTK	inactive
MCLSILE	inactive
MCNMCR	inactive
MCQNLRMYMIYHRQGKWMKS	inactive
MCVYITYLNLWSDNSLRDRT	2.23 ± 0.061
MCYQNMR	inactive
MDMLMLMGMALLIDSNVQAK	inactive
MDNLCGVVFCGSWSVVYSAR	3.35 ± 0.06
MDRRNGNRN	inactive
MDVARRMFLISYIFIIFVVR	inactive
MELNLNKSSAYYKSVHFSVT	-0.053 ± 0.3
MERVRGRRMGVIVAFDVDGW	1.11 ± 0.19
MESRGALYLSFRGRNCSSTQ	0.371 ± 0.19

Substance	amyloid nucleation score
MEVLLVIYSDCERARSDTNI	inactive
MEWFFVSYPLITGWMGS	inactive
MFLSALDNGLLVNGYVICVC	inactive
MFMMTKRNCNSTCCHYKFRV	0.656 ± 0.16
MFNILADKGSRARSERASL	inactive
MFQGHMSWII	inactive
MFQPFYFHNFYISCKLA	1.95 ± 0.092
MFRVSWFLISGLLRSVAWNG	inactive
MFSYSNSHFSLRLMWRGLRF	inactive
MFWEGVTNSEMATKLHDKCI	inactive
MGKKSAHLSYRICVQCGKDG	inactive
MGLGGHIVLSGCSWFMYHIG	inactive
MGTRFVLGPVQNLCDIGSAW	inactive
MHNKVGPYTD	inactive
MHWCN	0.228 ± 0.82
MIGVSRLCNRRIF	inactive
MIPCLHEFLYLNSWDNKVGL	inactive
MIRRKRNAYMR	inactive
MIRTFKNSYISNGHCMVRRH	inactive
MIRVSHNRNASDQLRFASSL	inactive
MKAYILMVDRLVVELVPHVA	-0.107 ± 0.35
MKCCFSTLIPAKYNLDTLIL	inactive
MKEDSSYHWRLPHVTSTFVG	inactive

Substance	amyloid nucleation score
MKGCWFWKVIENFHIKSHCR	inactive
MKIGETYDLTSINPAAWNVR	inactive
MKLHTPIEMLEGTHIGHVCG	inactive
MKLVDLGVEIRLRRLAVSSV	inactive
MKVEVYPSTVFMRYRVNWVI	inactive
MKYRTALHTF	-0.961 ± 1.9
MLCFKPKPVRARNPGNILSH	inactive
MLDCYWPFPNISIRIWTEWV	inactive
MLDRCD	inactive
MLDYVF	inactive
MLFSIICNFGNKFLTYKEFT	0.89 ± 0.24
MLIQPWSSSRNYVPPAEYW	inactive
MLIYSIVLGFKFSPPGFTSN	inactive
MLLCDKFVVCTCIGVQVYSY	2.19 ± 0.087
MLLCMILPK	2.26 ± 0.078
MLNNNRWVGVFRLCWNVVWS	inactive
MLNWPIDRDSWRPGFDMWLG	-0.426 ± 0.6
MLRSDPS	inactive
MLTFLVYSCGTGWVCPLLRK	inactive
MLYNCRQGCKRSW	0.248 ± 0.44
MMCFTLS	inactive
MMFARKFAIKSTKRIMVGRT	inactive
MMFDYLLLRGHNAQIQLWWY	inactive

Substance	amyloid nucleation score
MMHILNGRSEVAPFYSTPIS	inactive
MMLDTWVTYPMREKLDAYRV	inactive
MMPDYKPR	inactive
MMRNTDK	inactive
MNKNIRGYDLFKMRMMDWCM	inactive
MNLVSSIVNYCFGRWGWLVG	inactive
MNRLNPRYMMIKYMDIQKWW	inactive
MPCNVKYSTVCFTA	inactive
MQFEINRRVGHRSPNAYLE	inactive
MRELQENVNDDS	inactive
MRLNGFLRRKGRVSNMWHTG	inactive
MRLVACA	inactive
MRLVICTAHWQSFYRFYIIL	inactive
MRMTTYSGIRVGIIERIMIN	inactive
MRPVT	inactive
MRRTSCTVYTGKIRRIMYVV	inactive
MRYVHRCSRWYLLQQLLRIH	inactive
MSCTDRYEIL	inactive
MSEFSQCRFKSHTFFVTSNR	inactive
MSFRIVFLPC	inactive
MSGLENVACDYKRELAMKRS	inactive
MSLIRYKLG	inactive
MSLWCTITGECKGDGWY	inactive

Substance	amyloid nucleation score
MSNRVMLKNYSLELEEIGRK	inactive
MSRGCCINLTLQIRVFWNTM	inactive
MSSFTAYLLNLR	inactive
MSTLVTMYHYGVGGCVWFYL	inactive
MSVTITGALQVVTKVPANMI	0.593 ± 0.2
MSVTMMAKWTTLILGIGTGM	inactive
MSYEDTPCH	inactive
MSYVSFKFVERSMGNNSGGI	-0.137 ± 0.64
MTLCLLSFRGQRSMPLYLWT	inactive
MTSIQEF	inactive
MTSQSMKVISWCDRHRQMNS	1.03 ± 0.13
MTTVKTDCFSQSRYYRHWET	inactive
MTVSVITAMGFTIGFFADNQ	0.494 ± 0.26
MTYGLFVIYMRGGSNLMLHV	inactive
MVDVNLAKRNGMNQSLHGNS	inactive
MVHAVPHMVDGGS	inactive
MVKDCITRVYFVVWFDYSRS	inactive
MVQTKMSQFKSFEFARVMWH	inactive
MVTRMCYIACLVFRVWAMCR	inactive
MVVVPDQLRVTGMRSGGKSG	inactive
